B1: TPR t1 (parent)
chain: GACCAAUCUGCCCUCAGAGCUCGAGAACAUCUUCGGAUGCAGAGGAGGCAGGCUUCGGUGGCGCGAUAGCGCCAACGUCCUCAACCUCCAAUGCAUCCCACCACAUGAUGAUGCCUGAAGAGCCUUGGUUUUUUG

Variants of: B1
Assay: polymerase ribozyme fitness, log enrichment relative to wild type (log ratio); higher = more active; in vitro selection for triplet polymerase activity
Outline: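 Mutant libraries of both subunits of a heterodimeric triplet polymerase ribozyme were PCR-built, transcribed, and selected once in triplicate, with frozen incubation at −7 °C and capture of gel-excised extended constructs on streptavidin beads before RT-PCR. Illumina sequencing of input and output libraries was filtered to genotypes with ≥10 input reads and ≥1 read per output. Fitness is the logarithm of genotype enrichment over wild-type enrichment, using inverse-variance-weighted replicate averages. The logarithm is base 2.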

Row | Variant | polymerase ribozyme fitness (log ratio)
1 | G60A U130C | -0.0253
2 | G60A C82U U131A | -0.161
3 | G60A C115A G120U | -0.811
4 | G60U G110C C123U | -5.58
5 | G60U C89A A111C C114A | -4.37
6 | G60A U109A | -5.33
7 | G61A C73U C76U | -3.66
8 | G60A C98U | -0.842
9 | G60C A121U | 1.85
10 | G61A C79U C115A G120A | -0.74
11 | G61A C115A | 0.519
12 | G61A C115U | -0.993
13 | G61A G122A | -0.219
14 | G61A G122U | 0.115
15 | G61A A83U A90G | 0.0238
16 | G61A A74U C101G G120C | -2.7
17 | G60A G120A | 0.658
18 | G61A C98U C114A | -2.26
19 | G60C G117U | -3.4
20 | G60C G117C | -4.28
21 | G60C C115A | 0.199
22 | G60A C73G A108U | -5.92
23 | G61A C82G A105C | -2.79
24 | G60A G63C G110A G135C | -6.16

Row | Variant | polymerase ribozyme fitness (log ratio)
25 | G60U A84G G128A | -1.56
26 | G61A C85U G117A U129C | -2.75
27 | G60U U78C A90C G117U | -4.13
28 | G60A G69C C80G G110U G120C | -6.82
29 | G60A G107U | -4.12
30 | G60A G107A | -2.9
31 | G60A A121G | 1.66
32 | G60U C89G C101U U112A C115U | -4.63
33 | G60U C72U A111U | -2.86
34 | G60U G107A | -3.31
35 | G60C G127U | -0.837
36 | G61A G93A | -0.586
37 | G61A G93C | -0.381
38 | G60A U109A U133G | -5.4
39 | G61A C99U G113C | -5.29
40 | G60U C101U G120A | 0.583
41 | G60A G93A G120A | -0.129
42 | G61A G110C | -3.29
43 | G61A G110U | -0.817
44 | G60U A103G U112G | -6.67
45 | G60A G120U A121C | 0.445
46 | G60U A103C U106G U125A | -5.2
47 | G60U C123G C124U | 2.24
48 | G60U U78G C79A G110A U126C | -4.68

Row | Variant | polymerase ribozyme fitness (log ratio)
49 | G61A U81G | -3.89
50 | G60U G127A | -0.768
51 | G60A G93A U131A | -0.952
52 | G60C U125A | -0.729
53 | G61A U129G | -1.24
54 | G61A U129A | -1.11
55 | G60A G61C U92C G113A | -3.6
56 | G60A C82A G113A | -0.999
57 | G60U A84G C86U G135C | -0.459
58 | G60A U78A A84U G93A C102A | -5
59 | G60A C79U C98G C99A C123G | -2.67
60 | G61A G93C C97A C104A | -6.04
61 | G60U U112G A121G U133A U134A | 1.66
62 | G60U C73U U106A | -0.452
63 | G60A C73G G110A U112C | -2.14
64 | G60A C86A | -0.942
65 | G60A C97U G120C | 0.712
66 | G60C C70A U78A C85G C98U G117C | -6.56
67 | G60C C64U | -5.26
68 | G60A C89A C115U | -2.92
69 | G61A A118C G120C U126G | -4.35
70 | G61A C72G | 0.08
71 | G60A C89U A95U | -1.24
72 | G60C G135A | -1.35

Row | Variant | polymerase ribozyme fitness (log ratio)
73 | G60C G135U | -1.23
74 | G60A G69U A121C G122U | -0.0689
75 | G60A U87G C102G G113A | -6.32
76 | G60A C123U | 1.14
77 | G60C G69U C80U | -5.8
78 | G60C U78A G110A A111U C124A U133A | -2.76
79 | G60C A84U | -0.735
80 | G60C C98U | -0.75
81 | G60C C73U | -1.41
82 | G60A G120C G128U | 0.061
83 | G61A A95U | 0.338
84 | G61A G77C U96A | -1.55
85 | G61A G71U A95U U106G G120U | -5.9
86 | G60U C70U C94U | -2.63
87 | G60A C80U C89U | -2.13
88 | G61A C86A | -0.514
89 | G60A U81G A91G U116C | -7.03
90 | G61A U116G | -3.01
91 | G61A U116C | -0.278
92 | G61A G93C A95C | -1.24
93 | G61A A74U G113U | -4.56
94 | G61A C124U | 1.51
95 | G61A C123A | 0.936
96 | G61A C123U | 1.29

Row | Variant | polymerase ribozyme fitness (log ratio)
97 | G60A C72G C101U | -1.15
98 | G60U C62U | -0.758
99 | G60C C94U C124U | 1.26
100 | G60U G93U | -1.03
101 | G60C G61U | -1.76
102 | G60C C102A G110A | -4.88
103 | G60U A75U G117C | -3.72
104 | G60C C86A | -2.44
105 | G60C C86U | 0.269
106 | G60A U87A A119G U125C | -0.987
107 | G61C A66C | -2.87
108 | G60A A111C C123A | -1.91
109 | G61A G93U A111G | 0.181
110 | G61A A66U U78C A118G | -1.83
111 | G60U G63A | -4.69
112 | G60U G63U | -4.69
113 | G60A U78G G113C U133G | -3.73
114 | G61A A83U G117C | -4.17
115 | G60U G61A A91U | -2.61
116 | G60A C98A C123U | -5.08
117 | G60A C76G | -2.57
118 | G60A C76U | -1
119 | G61A A66C U78C C88G | -2.23
120 | G60A G93C | -1.2

Row | Variant | polymerase ribozyme fitness (log ratio)
121 | G60A C70U | -1.22
122 | G60A C70A | -3.02
123 | G61A A84U | -0.89
124 | G60C A100U C114A | -3.1
125 | G60U C80A | -3.33
126 | G60U U109G U125G U130G | -5.39
127 | G61A A83C | -0.418
128 | G61A A83G | -1.47
129 | G60C U112G C124A | -0.118
130 | G60U C85A C101U | -0.366
131 | G61A C80U A105U | -3.51
132 | G60U A111C G122C | -0.82
133 | G60C G61C U81G C115U | -5.37
134 | G61A A74C U112A | -2.06
135 | G60A C82G C86A U87G | -1.52
136 | G60C U132A | -0.171
137 | G61A C94A | -0.27
138 | G61A C94U | -0.0774
139 | G60A C82A U129G | -1.13
140 | G61A U87A | 0.597
141 | G60C U129G | -1.43
142 | G60U A90C | -1.12
143 | G60A G128C | -2.6
144 | G60A G128U | -1.57

Row | Variant | polymerase ribozyme fitness (log ratio)
145 | G60U C70A C114U | -7.08
146 | G60C G110A | -1
147 | G60A A83C C101G G128C | -4.75
148 | G61A G93A C104U | 0.015
149 | G61A C88U G113A G128U | -2.99
150 | G60A G110A | -1.52
151 | G60A C80A G113C | -6.39
152 | G60A U78A C123U | 0.832
153 | G60C A105U | -3.07
154 | G61A C97G G110A | -5.81
155 | G60U C102U A108G | -3.29
156 | G60U C62U U78G C80A U112C | -1.42
157 | G60A C104A | -1.89
158 | G60A G113C | -2.12
159 | G60U C86A | -0.471
160 | G60U U129A | -1.37
161 | G60U U112C | 1
162 | G60A A105G G120U U133G G135U | -3.99
163 | G60A U87A | -0.0639
164 | G61A C62G A75G A95U A121C | -5.37
165 | G60A U112A G113C | -1.56
166 | G60C C124U | 1
167 | G60A A111U | -3.16

Source: the RNAGym collection of RNA variant scans (doi:10.1073/pnas.2313332121)
